Patent publication US20250179210A1, “ANTI-CEACAM5 ANTIBODIES AND CONJUGATES AND USES THEREOF” (Merck Patent GmbH, priority 2022, published 2025)

Biological target: Recombinant Macaca fascicularis CEACAM5_ECD-His-biotin (Syngene) (Macaca fascicularis)
Experiment: BLI (Octet Red), biotinylated antigen captured on streptavidin biosensor, Fab as analyte 6.25-200 nM

Sequence of Recombinant Macaca fascicularis CEACAM5_ECD-His-biotin (Syngene) (Macaca fascicularis) (chain, as listed by the source limits assumed, form in doubt): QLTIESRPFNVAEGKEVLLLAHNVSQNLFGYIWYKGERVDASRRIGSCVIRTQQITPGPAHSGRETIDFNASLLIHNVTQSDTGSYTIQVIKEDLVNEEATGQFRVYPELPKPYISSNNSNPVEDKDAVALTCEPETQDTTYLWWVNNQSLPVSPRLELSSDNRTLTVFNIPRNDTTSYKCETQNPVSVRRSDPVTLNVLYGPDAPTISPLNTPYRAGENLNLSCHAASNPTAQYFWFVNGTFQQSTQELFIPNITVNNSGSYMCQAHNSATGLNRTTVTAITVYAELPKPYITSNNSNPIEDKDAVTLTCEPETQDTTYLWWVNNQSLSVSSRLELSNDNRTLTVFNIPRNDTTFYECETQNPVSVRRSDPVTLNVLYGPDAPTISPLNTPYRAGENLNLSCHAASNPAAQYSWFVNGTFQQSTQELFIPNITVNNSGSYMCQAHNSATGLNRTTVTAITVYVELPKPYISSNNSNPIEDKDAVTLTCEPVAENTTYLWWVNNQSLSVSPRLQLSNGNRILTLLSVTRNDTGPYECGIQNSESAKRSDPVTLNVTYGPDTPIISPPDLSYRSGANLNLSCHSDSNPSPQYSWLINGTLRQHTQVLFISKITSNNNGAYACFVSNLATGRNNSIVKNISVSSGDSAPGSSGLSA

- Kd: 0.0141 µM
B1: Fab of mAb1 (Fab, V domains shown)
VH: EVQLQESGPGLVKPSQTLSLTCTVSDGSVSRGGYYLTWIRQHPGKGLEWIGYIYYSGSTYFNPSLRSRVTMSVDTSKNQFSLKLSSVTAADTAVYYCARGIAVAPFDYWGQGTLVTVSS
VL: EIVLTQSPATLSVSPGERATLSCRTSQSVRSNLAWYQQKPGQAPRLLIYAASTRATGIPARFSGSGSGTEFTLTISSLQSEDFAVYYCQQYTNWPFTFGPGTKVDIK
